B1: KRT33B (parent)
chain: YQSYFKTIEELQQKILCSKSENAR

Variants of: B1
Assay: protein stability index of a GFP-peptide fusion (GPS, HEK-293T) (PSI 1-6); higher = more stable
Details: c terminus: a fixed tail appended
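Further: lentivirally expressed fusions sorted by FACS into six bins by GFP to DsRed ratio, PSI derived from sequencing read proportions per bin multiplied by bin number.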

Protein stability index of substitutions, site by site:
S20: L 1.73, R 1.89, F 1.97, N 2.13, H 1.82, E 1.65
E10: T 1.87, A 2.02, K 2.44, G 2.6, I 1.66
Q13: Y 1.65, L 2.2, M 1.4, C 1.3, I 1.35, H 2.09, V 1.78
C17: L 2.87, T 2.19, V 1.72
T7: Y 2.08, C 2.1, R 1.88, F 2.11, K 1.88, E 2.31, A 2.21, N 2.23, W 1.8, M 2.12, H 2.31
L11: F 1.75, V 2.01, K 1.42, S 1.84, P 2.06, Q 1.71, I 1.81, E 2.01
R24: K 1.84, L 2.15, F 1.47, A 1.94, D 1.78, M 1.92, Q 2.34
E9: T 2.12, D 1.9, S 2.99, W 1.71
Q12: G 1.73, N 1.89, Y 1.97, D 2.07, I 1.94, L 1.79
F5: P 2.17, E 3.79, Q 2.78, V 2.26, K 2.38, S 2.81, W 2.44, N 2.91
N22: M 1.93, G 1.99, R 1.49, V 1.89, A 2.31, E 1.89, S 2.5, W 1.9, H 2.18
S18: H 1.84, M 2.18, K 1.86, G 2.21, A 2.21, F 1.68, C 2.65
K14: G 1.25, H 2.28, C 2.14, E 1.82, L 2.14, Q 2.78, S 1.97, M 2.28
K19: Q 2.08, D 1.72, H 1.76, W 1.57, N 1.86, I 1.71, A 1.72
E21: L 1.7, A 1.86, I 1.6, F 2.06
I15: D 2.05, T 1.81, K 1.64, F 2, Q 2.09, G 2.25, L 1.67, S 1.93
S3: K 1.98, H 1.59, I 1.67, N 1.79, A 2.87, L 1.96, V 1.6, W 1.79
Y1: L 1.89, Q 3.32, C 2.69, H 3.04, N 3.72
I8: R 1.9, K 2.42, T 1.63, L 2.41, N 2.19, V 2.19, D 2.07, E 3
K6: V 2.41, G 1.5, L 1.77, I 2.52, P 2.74, M 1.8, R 1.11, Y 2.55
Q2: L 2.46, V 2.2, R 2.63, A 2.54, S 2.22, I 2.63, M 2.65
A23: F 1.47, K 1.76, N 2.24, W 1.57, M 2.11, R 2.13
Y4: A 2.1, T 1.74, C 2.01, G 2.08, W 2.97, V 2.19, F 1.85, E 1.88, K 1.5, D 2.34
L16: T 1.55, D 1.87, K 2.39, W 2.1, S 2, H 1.96, Y 1.41
